Experimental data taken from patent US20160024208A1 (Regeneron, published 2016).

T1: N-Term Biotin Nav1.7 (3-1) peptide, mulatta (mulatta (monkey), not fully specified; N-terminal biotin attached via a G4S linker)
T1 construct: Synthetic peptide; also called Mulatta Nav1.7 3-1 N-term biotin; monkey
T1 peptide: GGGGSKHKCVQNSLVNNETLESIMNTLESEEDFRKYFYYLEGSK

T2: N-Term Biotin-Nav1.7 (3-1) peptide, human (human, not fully specified; N-terminal biotin attached via a G4S linker)
T2 construct: ELISA peptide
T2 peptide: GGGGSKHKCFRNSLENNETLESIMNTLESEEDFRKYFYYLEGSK

T3: N-Term Biotin Nav1.7 (3-1) peptide, mouse (mouse, not fully specified; N-terminal biotin attached via a G4S linker)
T3 construct: Synthetic peptide; also called Mouse Nav1.7 3-1 N-term biotin
T3 peptide: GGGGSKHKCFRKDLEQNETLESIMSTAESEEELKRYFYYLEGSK

T4: Native Nav1.7 (3-1) peptide, rat (rat)
T4 construct: Synthetic peptide; also called Rat Nav1.7 3-1 native
T4 peptide: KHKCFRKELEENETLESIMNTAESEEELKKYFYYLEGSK


Key:
[1] = target: T5, full-length human Nav1.7 fused at its N-terminus to GFP, expressed in HEK293 cells (human, UniProt Q15858 1-1988); test: flow cytometry on Nav1.7-GFP-HEK293, antibody 3.3 nM preincubated with 3.3 uM EC 3-1 peptide as competitor
T5 construct: Voltage-gated sodium channel alpha subunit; In the Western blot it stood as denatured cell lysate; also called hNav 1.7-GFP-HEK293; Nav 1.7-GFP-HEK293; not shown: green fluorescent protein (GFP) at the N-terminus
Description: (§1) The specificity of binding of anti-Naᵥ 1.7 human antibodies to full-length Naᵥ 1.7 expressed in HEK293 cells was determined by peptide competition experiments using flow cytometry.
(§2) HEK293 cells stably-transfected with full-length Naᵥ 1.7 fused at its N-terminus to GFP (Naᵥ 1.7-GFP-HEK293) were used for this study. Antibody binding to the transfected cells overexpressing Naᵥ 1.7 was compared to binding in the presence of excess peptide and to binding to the parental HEK293 cell line. To perform the binding experiments, adherent cells were collected using 1 mM EDTA in PBS, washed and re-suspended in cold PBS containing 5% FBS. For each binding experiment the anti-Naᵥ 1.7 antibody at a final concentration of 3.3 nM (in PBS/5% FBS) was added to cells either directly or after incubating for 10 min on ice with a 1000-fold molar excess (3.3 uM final concentration in PBS/5% FBS) of synthetic peptide with sequence corresponding to the loop specificity of the antibody. The antibodies designated as H4H391P, H4H443B, H4H448B, and H1M797N were preincubated as described above with a synthetic peptide corresponding to EC loop 3-1 (amino acid residues 269-338 of SEQ ID NO: 670), whereas the antibodies designated as H4H468P and H1 M852N were preincubated with a synthetic peptide corresponding to EC loop 3-3 (amino acid residues 1333-1382 of SEQ ID NO: 670). The antibody or antibody-peptide mixture was then allowed to incubate with cells for 20 min on ice, followed by addition of 500 uL of cold PBS/5% FBS. Cells were collected by centrifugation, resuspended in 500 uL of cold PBS/5% FBS, and then secondary antibody matched to the antibody isotype (either anti-human-Fc conjugated to Cyanine 5 or anti-mouse-Fc conjugated to allophyococyanin) was added. Binding was detected on the flow cytometry instrument and analyzed as percent binding using the instrument software. For FACS analysis appropriate gating was applied so that only healthy, live cells were counted. Background staining of secondary antibodies alone to Naᵥ 1.7-GFP-HEK293 cells was tested and recorded for all samples, and results ranged between 1-2% binding.

[2] = target: T5, full-length human Nav1.7 fused at its …; test: flow cytometry on Nav1.7-GFP-HEK293, antibody 3.3 nM
Description: as §1, §2

[3] = target: T1, N-Term Biotin Nav1.7 (3-1) peptide, …; test: ELISA on coated peptide, antibody 1 ug/ml, OD450 grade
Outline: (§3)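 Peptides coated at 4 μg/mL in PBS, or biotinylated peptides captured at 0.4 μg/mL on avidin (2 μg/mL). Antibodies at 0.1 and 1.0 μg/mL, 1 h at room temperature, detected with HRP anti-mouse or anti-human IgG and TMB at OD450. Scores at 1 μg/ml: <0.2 −; 0.2–1 +; 1–2 ++; 2–4 +++.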

[4] = target: T2, N-Term Biotin-Nav1.7 (3-1) peptide, …; test: as above
Outline: as §3

[5] = target: T3, N-Term Biotin Nav1.7 (3-1) peptide, …; test: as above
Outline: as §3

[6] = target: T4, Native Nav1.7 (3-1) peptide, rat; test: as above
Outline: as §3

Row | Binder | % Binding Nav1.7 + 1000x Peptide (Competition Binding) [1] [%] | % Binding Nav1.7 (Stable Line) [2] [%] | OD450 [3] [od] | OD450 [4] [od] | OD450 [5] [od] | OD450 [6] [od]
1 | H1M879N (antibody, V domains shown, Hybridoma-derived) VH: EVQLVESGGGLVKPGGSLRLSCAASGFTFSSYTIHWVRQAPGKGLEWVSSISSSSSYIYYVDSVKGRFTISRDNAKNSVYLQMNSLRAEDTAVYYCATSSITARGYFDYWGQGTLVTVSS VL: EIVLTQSPATLSLSPGERVTLSCRASQSVSSYLAWYQQKPGQAPRLLIYDASNRATGIPARFSGSGSGTDFTLTISSLEPEDFAVYYCQQRNIWPPTFGQGTKVEIK | 1.3 | 63 | 2 to 4 | 2 to 4 | – | –
2 | H1M852N (antibody, V domains shown, constant region may differ; also called H4H852N) VH: QVQLVESGGGVVQPGRSLTLSCAASGFMFNRFGMHWVRQAPGKGLDWVAVIWYDGSNKYYADSVKGRFTISRDNSKNTLYLQVNSLRAEDTAVYYCAREGTPHYYDSSGLDYWGQGTLVTVSS VL: AIQMTQSPSSLSAYVGDRVTITCRASQDIRNDLGWYQQKPGKAPNLLIYDISSLQSGVPSRFSGSGSGTDFTLTISSLQPEDFATYYCLQDYNYPLTFGGGTKVEIK | – | 64.1 | – | – | – | –
3 | H1M797N (antibody, V domains shown) VH: QVQLVESGGGVVQPGRSLRLSCAASGFTFSSYGMHWVRQAPGKGLEWVAVISYDGNNKHFADSVKGRFTISRDNSKNTLNLQMNSLRAEDRAVYYCARGASGFVLDIWGQGTMVTVSS VL: DIVMTQTPLSSPVTLGQPASISCRSSQSLVRSDGNTYLSWLQQRPGQPPRLLIYKISNRFSGVPDRFSGSGAGTDFTLKISRVEAEDVGIYFCMQTTQFPFTFGPGTKVDIK | 10.8 | 45.4 | 2 to 4 | 2 to 4 | 2 to 4 | 2 to 4
4 | H1M801N (antibody, V domains shown, also called H1H801N) VH: QVQVVESGGGVVQPGRSLRLSCAASGFTFSNYGMHWVRQAPGKGLEWVTVISYDGSNKNYADSVKGRFTISRDNSKNTLYLQMNSLRAEDTAMYYCARGGSGFAFDIWGQGTMVTVSS VL: DIVMTQTPLSSPVTLGQPASISCRSSQSLVRSDGNTYLSWLQQRPGQPPRLLIYKISNRFSGVPDRFSGSGAGTDFTLKISRVEADDVGVYYCMQTTQFPFTFGPGTKVDIK | 1.9 | 49.5 | 2 to 4 | 1 to 2 | 1 to 2 | 1 to 2
5 | H1H1006B (antibody, V domains shown, Fully human antibody; also called H4H1006B-1) VH: EVQLVESGPGLVKSSETLSLKCTVSGGSISSSGYYWGWIRQPPGKGLEWIGSIHRSGSTFYNPSLKSRVTISVDTSKSQFSLRLTSVTAADTSVYFCGRHGRDYYYGMDVWGQGTTVTVSS VL: DIQMTQSPSSVSASVGDRVTITCRSSQDINNWLVWYQQKPGKAPKVLIYGASRLQSGVPSRFSGSGSGTDFTLTISSLQPEDFATYYCQQANSFPLTFGGGTKVEIKR | – | – | 2 to 4 | 2 to 4 | 2 to 4 | 2 to 4
6 | H1M836N (antibody, V domains shown) VH: QVQLVESGGGVVQPGRSLRLSCAASGFTFSSYGMHWVRQAPGKGLEWVAVISYDGNNKYYADSVKGRFTISRDNSKNTLYLQMNSLRAEDTAVYYCAKGSAGYALDYWGQGTLVTVSS VL: not shown | 2.2 | 68.9 | 2 to 4 | 2 to 4 | – | 1 to 2
